Here are results for three molecules from patent WO2001068708A2 (dated 2001).

Experiment [1] deals with T1, fibroblast activating protein alpha (FAPα), cell surface-bound (human, UniProt Q12884 1-760).
T1 construct: whole, on cells; Also used as the target of the FAP-specific immunohistological staining of tumour cryo-sections; also called FAP+ cells; FAP overexpressing fibrosarcoma cells (HT1080)
T1 sequence (looked up): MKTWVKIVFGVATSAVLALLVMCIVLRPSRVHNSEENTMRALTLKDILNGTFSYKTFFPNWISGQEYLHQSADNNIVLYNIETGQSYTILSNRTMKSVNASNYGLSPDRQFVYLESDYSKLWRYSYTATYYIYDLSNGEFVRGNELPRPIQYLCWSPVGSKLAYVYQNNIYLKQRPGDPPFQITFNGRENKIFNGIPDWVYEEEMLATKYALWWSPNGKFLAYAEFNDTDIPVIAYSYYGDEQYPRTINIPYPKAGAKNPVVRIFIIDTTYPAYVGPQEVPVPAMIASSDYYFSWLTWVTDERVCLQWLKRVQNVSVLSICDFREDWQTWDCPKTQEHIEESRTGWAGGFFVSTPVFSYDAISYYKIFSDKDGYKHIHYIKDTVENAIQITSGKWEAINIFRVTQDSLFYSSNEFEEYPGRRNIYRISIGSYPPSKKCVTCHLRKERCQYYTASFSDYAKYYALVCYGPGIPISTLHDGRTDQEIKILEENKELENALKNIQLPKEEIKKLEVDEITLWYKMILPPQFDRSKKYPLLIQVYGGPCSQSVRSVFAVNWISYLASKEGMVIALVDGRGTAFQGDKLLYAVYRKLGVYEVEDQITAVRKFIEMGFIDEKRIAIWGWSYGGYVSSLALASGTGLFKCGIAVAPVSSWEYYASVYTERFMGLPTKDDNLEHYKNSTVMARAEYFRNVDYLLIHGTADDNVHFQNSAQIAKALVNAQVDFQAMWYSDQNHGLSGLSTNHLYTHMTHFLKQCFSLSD
Kind of experiment: binding to FAP+ cells, cell analyser, half maximal saturation.

Experiment [2] deals with T2, fibroblast activating protein alpha (FAPα), purified / immobilised antigen (human, UniProt Q12884 27-760, limits assumed).
T2 construct: Antigen coated on ELISA wells and immunotubes; The construct is not described; also called human FAP; immobilized FAP
T2 sequence (looked up): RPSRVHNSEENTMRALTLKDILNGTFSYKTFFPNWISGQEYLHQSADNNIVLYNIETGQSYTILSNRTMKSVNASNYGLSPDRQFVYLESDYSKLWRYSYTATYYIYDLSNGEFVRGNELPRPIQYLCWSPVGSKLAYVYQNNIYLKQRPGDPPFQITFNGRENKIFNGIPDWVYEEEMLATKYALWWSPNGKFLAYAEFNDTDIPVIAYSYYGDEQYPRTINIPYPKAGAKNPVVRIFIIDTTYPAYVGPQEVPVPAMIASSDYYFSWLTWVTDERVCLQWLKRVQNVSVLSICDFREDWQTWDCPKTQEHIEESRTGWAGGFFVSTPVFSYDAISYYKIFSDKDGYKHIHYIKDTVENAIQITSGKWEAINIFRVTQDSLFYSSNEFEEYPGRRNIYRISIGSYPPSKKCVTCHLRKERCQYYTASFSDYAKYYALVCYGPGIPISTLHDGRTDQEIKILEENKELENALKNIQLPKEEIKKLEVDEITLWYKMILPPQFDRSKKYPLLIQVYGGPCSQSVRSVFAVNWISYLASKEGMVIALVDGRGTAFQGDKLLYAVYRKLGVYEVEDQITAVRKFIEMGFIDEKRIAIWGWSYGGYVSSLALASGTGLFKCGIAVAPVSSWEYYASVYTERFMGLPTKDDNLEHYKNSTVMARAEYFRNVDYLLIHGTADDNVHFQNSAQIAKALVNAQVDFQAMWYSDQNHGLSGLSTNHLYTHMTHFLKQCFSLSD
Kind of experiment: sandwich ELISA, half maximal saturation of binding (SC50), c-myc tag detection.

Experiment [3] addresses T1, fibroblast activating protein alpha …. The experiment can be described thus: flow cytometry on FAP overexpressing HT1080 cells, half maximal saturation (SC50).

B1: scFv #13 as bivalent in minibody format (other)
chain: QVQLVESGGTLVQPGGSLRLSCAASGFTFSSYAMSWIRQAPGKGLEWVSGISASGGYIDYADSVKGRVTISRDNSKNMAYLQMSSLRAEDTALYYCAKGGNYQMLLDHWGQGTLVTVSSASTKGPKLEEGEFSEARVDIQMTQSPSSLSASTGDRVTITCRASQDISSYLAWYQQAPGKAPHLLMSGATTLQTGVPSRFSGSGSGTDFTLTITSLQSEDFATYYCQQYYIYPPTFGQGTRVEIKRTVAAPSVFAA
As for B1, the half-maximal effective concentration (EC50) in experiment [1] lay in the range of 8 to 12 nM.

B2: scFv F19 (parental murine scFv) (scFv, V domains shown)
VH: EVQLQQSGPELVKPGASVKMSCKTSRYTFTEYTIHWVRQSHGKSLEWIGGINPNNGIPNYNQKFKGRATLTVGKSSSTAYMELRSLTSEDSAVYFCARRRIAYGYDEGHAMDYWGQGTSVTVSS
VL: DIVMSQSPSSLAVSVGEKVTMSCKSSQSLLYSRNQKNYLAWFQQKPGQSPKLLIFWASTRESGVPDRFTGSGFGTDFNLTISSVQAEDLAVYDCQQYFSYPLTFGAGTKLELK
As for B2, the 50% effective concentration (EC50) in experiment [2] and in experiment [3] was 20 nM in each case.

B3: scFv #50 as bivalent in minibody format (other)
chain: QVQLVESGGGLVQPGGSLRLSCAASGFTFSNYWMSWVRQAPGKGLEWVANIKQDGSEKYYVDSVKGRFTISRDNAKNSLYLQMNSLRAEDTAVYYCARGSLCTDGSCPTIGPGPNWGQGTLVTVSSAPTKAPKLEEGEFSEARVDIQMTQSPSSLSASTGDRVTITCRASQDISSYLAWYQQAPGKAPHLLMSGATTLQTGVPSRFSGSGSGTDFTLTITSLQSEDFATYYCQQYYIYPPTFGQGTRVEIKRTVAAPSVFAA
Molecule B3 had an EC50 in experiment [1] of 32 nM.

Usually EC50 stands for the concentration that produces a half-maximal response. A higher EC50 goes with a less potent agent.
